Test results: patent US20260199558A1, “INJECTABLE COMPOSITIONS FOR TREATING JOINT CONDITIONS” (Ohio State Innovation Foundation, priority 2022, published 2026)

Tests used:
[1] = test system: human cartilage endplate (CEP) cells; assay: PDA nanoparticle / free bevacizumab dose effect on human cartilage endplate (CEP) cell viability; type: cell-based
[2] = test system: human annulus fibrosus (AF) cells; assay: PDA nanoparticle / free bevacizumab dose effect on human annulus fibrosus (AF) cell viability; type: cell-based; conditions: doses higher than 1 mg/mL

Bevacizumab
cell viability ([1]; 1 mg/mL dosing): 30%
cell viability ([1]; up to 0.5 mg/mL): > 80%
cell viability [2]: approximately 30%
